Consider 6 compounds from patent US12410262B2, “Peptide conjugates of cytotoxins as therapeutics” (Cybrexa 2, Inc., priority 2019, dated 2025).

Data set [1] in a line: Glutathione cleavage study. The following applies: for remaining at 4 h, 100 µM / remaining at 24 h, 100 µM: Tris buffer with 10 mM glutathione, Glutathione Challenge (10 mM), 100 μM conjugate, Tris pH 7.5, 37° C. Type of data set: in vitro ADME. On the procedure:
A 20 mM stock of conjugate was prepared in 100% DMSO. The stocks were subsequently diluted in 100 mM Tris, pH 7.5, to yield an intermediate dilution of 500 μM followed by an additional dilution of 1:5 in 100 mM Tris, pH 7.5 to give a final concentration of 100 μM of conjugate. 100 mM glutathione was prepared immediately prior to use in H2O and diluted 1:10 in challenge samples for a final glutathione challenge concentration of 10 mM. Samples were mixed by inversion and incubated at 37° C. for up to 24 hrs. […]
Samples were thawed and extracted as follows: 8 μL of 25% phosphoric acid followed by 117 μL of 100% acetonitrile/0.1% TFA were added to each sample, mixed and centrifuged at 13000×G for 10 minutes. The supernatant was pipetted into 0.2 mL HPLC vials and placed on a Perkin Elmer Flexar HPLC autosampler. The following table summarizes HPLC conditions:
Data was analyzed by calculating the percentage reduction of compound (area of retention time peak of […] conjugate/area of retention time peak of conjugate at time 0)×100.

Data set [2] deals with HCT116. Put plainly: cells. Format: cell-based, human. How it is done:
Cells were plated in 96 well black walled-clear bottom plates (Griener), DLD-1 WT cells at 2500 cells per well, FaDu, and HeLa cells at 5000 cells per well, and HCT116 at 3000 cells per well, in growth media containing 10% FBS. Cells were allowed to adhere at room temperature for 60 minutes before returning to a 37 C, 5% CO2 incubator. After 24 hours, media was removed and replaced with fresh growth media containing various drug concentrations. Each drug concentration was added in triplicate. Non-drug treated controls contained growth media only. Cells were returned to the incubator. Ninety-six hours after addition of drug, cells were fixed with 4% paraformaldehyde for 20 minutes and stained with Hoechst at 1 ug/mL. The plates were imaged on a Cytation 5 auto imager (BioTek) and cells were counted using CellProfiler (http://cellprofiler.org). The percent cell growth delay was calculated and data plotted using GraphPad Prism

Data set [3] is described as follows: Plasma stability studies. The following applies: rat plasma, 100 μM conjugate, 37° C. Format: in vitro ADME. On the procedure:
A 20 mM stock of conjugate was prepared in 100% DMSO. The stocks were subsequently diluted in 100 mM Tris, pH 7.5 to yield an intermediate dilution of 500 μM and then diluted 1:5 directly into rat plasma to yield a final concentration of 100 μM of conjugate. Samples were mixed by inversion and incubated at 37° C. for up to 24 h. 50 μL samples were aliquoted into siliconized microfuge tubes at time 0, 4, and 24 h and immediately frozen at −80° C.
Samples were thawed and extracted as follows: 8 μL of 25% phosphoric acid followed by 117 μL of 100% Acetonitrile/0.1% TFA was added to each sample, mixed and centrifuged at 13000×G for 10 minutes. The supernatant was pipetted into 0.2 mL HPLC vials and placed on a Perkin Elmer Flexar HPLC autosampler. The following table summarizes HPLC conditions:
Data was analyzed by calculating the percentage reduction of compound (area of retention time peak of incubated conjugate/area of retention time peak of conjugate at time 0)×100.

Where two headings read alike, the source gives them in different places.

For `CC[C@@]1(O)C(=O)OCc2c1cc1n(c2=O)Cc2c-1nc1cc(F)c(C)c3c1c2[C@@H](NC(=O)O[C@H]1Cc2ccccc2C[C@@H]1SSC[C@H](NC(=O)[C@H](Cc1c[nH]c2ccccc12)NC(=O)[C@H](CC(C)C)NC(=O)[C@H](CC(C)C)NC(=O)[C@H](CC(=O)O)NC(=O)[C@H](CC(C)C)NC(=O)[C@H](CC(C)C)NC(=O)[C@H](CC(C)C)NC(=O)[C@@H](NC(=O)[C@H](CC(=O)O)NC(=O)[C@@H](NC(=O)[C@@H]1CCCN1C(=O)[C@H](Cc1ccccc1)NC(=O)[C@H](CC(C)C)NC(=O)[C@H](CC(C)C)NC(=O)[C@H](CC(=O)O)NC(=O)[C@H](CC(C)C)NC(=O)[C@H](Cc1ccc(O)cc1)NC(=O)[C@H](C)NC(=O)[C@H](CCCNC(=N)N)NC(=O)[C@H](Cc1c[nH]c2ccccc12)NC(=O)[C@@H]1CCCN1C(=O)[C@H](CC(N)=O)NC(=O)[C@H](CCC(N)=O)NC(=O)[C@H](CC(=O)O)NC(=O)[C@H](CC(=O)O)NC(=O)[C@H](C)N)[C@@H](C)O)[C@@H](C)O)C(=O)NCC(=O)O)CC3` [Compound 18], in data set [1], the amount remaining at 4 h, 100 µM worked out at 60.1% and the share remaining at 24 h, 100 µM was 13%. The same compound came in with an IC50 in data set [2] (96 h) of 2.9 nM. Besides, in data set [3], the amount remaining at 4 h, 100 µM came to 104% and the share remaining at 24 h, 100 µM was determined as 93%.

As for `CC[C@@]1(O)C(=O)OCc2c1cc1n(c2=O)Cc2c-1nc1cc(F)c(C)c3c1c2[C@@H](NC(=O)O[C@H]1Cc2ccccc2C[C@@H]1SSC[C@H](NC(=O)[C@H](Cc1c[nH]c2ccccc12)NC(=O)[C@H](CC(C)C)NC(=O)[C@H](CC(C)C)NC(=O)[C@H](CC(=O)O)NC(=O)[C@H](CC(C)C)NC(=O)[C@H](CC(C)C)NC(=O)[C@H](CC(C)C)NC(=O)[C@@H](NC(=O)[C@H](CC(=O)O)NC(=O)[C@@H](NC(=O)[C@@H]1CCCN1C(=O)[C@H](Cc1ccccc1)NC(=O)[C@H](CC(C)C)NC(=O)[C@H](CC(C)C)NC(=O)[C@H](CC(=O)O)NC(=O)[C@H](CC(C)C)NC(=O)[C@H](Cc1ccc(O)cc1)NC(=O)[C@H](C)NC(=O)[C@H](CCCNC(=N)N)NC(=O)[C@H](Cc1c[nH]c2ccccc12)NC(=O)[C@@H]1CCCN1C(=O)[C@H](CC(N)=O)NC(=O)[C@H](CCC(N)=O)NC(=O)[C@H](CC(=O)O)NC(=O)[C@H](CC(=O)O)NC(=O)[C@H](C)N)[C@@H](C)O)[C@@H](C)O)C(=O)NCC(=O)O)CC3` [Compound 19], the IC50 in data set [2] (96 h) was determined as 1.8 nM.

On to `CC[C@@]1(O)C(=O)OCc2c1cc1n(c2=O)Cc2c-1nc1cc(F)c(C)c3c1c2[C@@H](NC(=O)CCSSC[C@H](NC(=O)[C@H](Cc1c[nH]c2ccccc12)NC(=O)[C@H](CC(C)C)NC(=O)[C@H](CC(C)C)NC(=O)[C@H](CC(=O)O)NC(=O)[C@H](CC(C)C)NC(=O)[C@H](CC(C)C)NC(=O)[C@H](CC(C)C)NC(=O)[C@@H](NC(=O)[C@H](CC(=O)O)NC(=O)[C@@H](NC(=O)[C@@H]1CCCN1C(=O)[C@H](Cc1ccccc1)NC(=O)[C@H](CC(C)C)NC(=O)[C@H](CC(C)C)NC(=O)[C@H](CC(=O)O)NC(=O)[C@H](CC(C)C)NC(=O)[C@H](Cc1ccc(O)cc1)NC(=O)[C@H](C)NC(=O)[C@H](CCCNC(=N)N)NC(=O)[C@H](Cc1c[nH]c2ccccc12)NC(=O)[C@@H]1CCCN1C(=O)[C@H](CC(N)=O)NC(=O)[C@H](CCC(N)=O)NC(=O)[C@H](CC(=O)O)NC(=O)[C@H](CC(=O)O)NC(=O)[C@H](C)N)[C@@H](C)O)[C@@H](C)O)C(=O)NCC(=O)O)CC3` [Compound 29], for which the “degradation on glutathione exposure (FIG. 10)” value in data set [1] (10 mM glutathione over 16 h) is “released much faster than Compound 11”. For the same compound, in data set [1], the share remaining at 4 h, 100 µM turned out to be 3.1% and the amount remaining at 24 h, 100 µM came out at 5.9%. The IC50 in data set [2] (96 h) was determined as 69 nM. Also, in data set [3], the share remaining at 4 h, 100 µM was 116% and the share remaining at 24 h, 100 µM came to 110%.

Consider `CC[C@@]1(O)C(=O)OCc2c1cc1n(c2=O)Cc2c-1nc1cc(F)c(C)c3c1c2[C@@H](NC(=O)O[C@H]1CCCCC[C@@H]1SSC[C@H](NC(=O)[C@H](Cc1c[nH]c2ccccc12)NC(=O)[C@H](CC(C)C)NC(=O)[C@H](CC(C)C)NC(=O)[C@H](CC(=O)O)NC(=O)[C@H](CC(C)C)NC(=O)[C@H](CC(C)C)NC(=O)[C@H](CC(C)C)NC(=O)[C@@H](NC(=O)[C@H](CC(=O)O)NC(=O)[C@@H](NC(=O)[C@@H]1CCCN1C(=O)[C@H](Cc1ccccc1)NC(=O)[C@H](CC(C)C)NC(=O)[C@H](CC(C)C)NC(=O)[C@H](CC(=O)O)NC(=O)[C@H](CC(C)C)NC(=O)[C@H](Cc1ccc(O)cc1)NC(=O)[C@H](C)NC(=O)[C@H](CCCNC(=N)N)NC(=O)[C@H](Cc1c[nH]c2ccccc12)NC(=O)[C@@H]1CCCN1C(=O)[C@H](CC(N)=O)NC(=O)[C@H](CCC(N)=O)NC(=O)[C@H](CC(=O)O)NC(=O)[C@H](CC(=O)O)NC(=O)[C@H](C)N)[C@@H](C)O)[C@@H](C)O)C(=O)NCC(=O)O)CC3` [Compound 23], for which the share remaining at 4 h, 100 µM in data set [1] turned out to be 61.4%; in data set [3], 92%. In addition, the amount remaining at 24 h, 100 µM worked out at 13.2% in data set [1] and 92% in data set [3]. Further, 11.9 nM corresponded to half-maximal inhibition in data set [2] (96 h) (IC50).

As to `CC[C@@]1(O)C(=O)OCc2c1cc1n(c2=O)Cc2c-1nc1cc(F)c(C)c3c1c2[C@@H](NC(=O)O[C@H](C)[C@@H](C)SSC[C@H](NC(=O)[C@H](Cc1c[nH]c2ccccc12)NC(=O)[C@H](CC(C)C)NC(=O)[C@H](CC(C)C)NC(=O)[C@H](CC(=O)O)NC(=O)[C@H](CC(C)C)NC(=O)[C@H](CC(C)C)NC(=O)[C@H](CC(C)C)NC(=O)[C@@H](NC(=O)[C@H](CC(=O)O)NC(=O)[C@@H](NC(=O)[C@@H]1CCCN1C(=O)[C@H](Cc1ccccc1)NC(=O)[C@H](CC(C)C)NC(=O)[C@H](CC(C)C)NC(=O)[C@H](CC(=O)O)NC(=O)[C@H](CC(C)C)NC(=O)[C@H](Cc1ccc(O)cc1)NC(=O)[C@H](C)NC(=O)[C@H](CCCNC(=N)N)NC(=O)[C@H](Cc1c[nH]c2ccccc12)NC(=O)[C@@H]1CCCN1C(=O)[C@H](CC(N)=O)NC(=O)[C@H](CCC(N)=O)NC(=O)[C@H](CC(=O)O)NC(=O)[C@H](CC(=O)O)NC(=O)[C@H](C)N)[C@@H](C)O)[C@@H](C)O)C(=O)NCC(=O)O)CC3` [Compound 12], the IC50 in data set [2] (HCT-116 cells, 96 h after addition of drug, second table (Compounds 11-29), read-out: HCT-116 (IC50)) was determined as 2.6 nM.

`CC[C@@]1(O)C(=O)OCc2c1cc1n(c2=O)Cc2c-1nc1cc(F)c(C)c3c1c2[C@@H](NC(=O)O[C@@H]1CCCC[C@H]1SSC[C@H](NC(=O)[C@H](Cc1c[nH]c2ccccc12)NC(=O)[C@H](CC(C)C)NC(=O)[C@H](CC(C)C)NC(=O)[C@H](CC(=O)O)NC(=O)[C@H](CC(C)C)NC(=O)[C@H](CC(C)C)NC(=O)[C@H](CC(C)C)NC(=O)[C@@H](NC(=O)[C@H](CC(=O)O)NC(=O)[C@@H](NC(=O)[C@@H]1CCCN1C(=O)[C@H](Cc1ccccc1)NC(=O)[C@H](CC(C)C)NC(=O)[C@H](CC(C)C)NC(=O)[C@H](CC(=O)O)NC(=O)[C@H](CC(C)C)NC(=O)[C@H](Cc1ccc(O)cc1)NC(=O)[C@H](C)NC(=O)[C@H](CCCNC(=N)N)NC(=O)[C@H](Cc1c[nH]c2ccccc12)NC(=O)[C@@H]1CCCN1C(=O)[C@H](CC(N)=O)NC(=O)[C@H](CCC(N)=O)NC(=O)[C@H](CC(=O)O)NC(=O)[C@H](CC(=O)O)NC(=O)[C@H](C)N)[C@@H](C)O)[C@@H](C)O)C(=O)NCC(=O)O)CC3` [Compound 13]: in data set [2] (96 h), 21 nM corresponded to half-maximal inhibition (IC50).

As usually defined, the IC50 is the concentration that gives 50% inhibition.
